Results taken from article PMC314469, “Protein Interaction Networks by Proteome Peptide Scanning” (PLoS Biology, 2004).

T1: amphyphisin SH3 (AMPH_HUMAN), P49418
T1 chain: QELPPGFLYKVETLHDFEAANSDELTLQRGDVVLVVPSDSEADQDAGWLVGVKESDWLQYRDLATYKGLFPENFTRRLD


target: endophilin SH3 (SH3G2_HUMAN), Q99962; test: SPOT array

normalised SPOT signal, Boehringer light units (BLU); mean over the file's lines of this peptide | Binder
67.4 | AERPPSKPPPVELR [Q14203 913-927]
291 | EDALPTRPKKRARS [Q9UPW0 160-173]
0.7 | EEASFRRPHPDGDV [Q9UBD0 73-86]
15.2 | EEAALKRPEIISTV [Q9NU22 363-376]
9090 | EDRLPRRPARSGGP [Q9UGK6 43-56]
58.1 | EDVKPFKPPLSDAE [Q9UJV1 144-158]
211 | EASIFRRPYYVSHF [O15360 570-583]
1440 | AETRPHRPPGARDS [Q9H021 747-761]
382 | EDPPPTRPSRPWRD [Q9UIG4 62-75]
211 | EASSPARPSKHSVG [Q92932 121-134]
75.8 | EEAQIFRPLKFNTT [Q15029 572-585]
16.2 | EDVLLRRPKSTPDM [Q9NUD7 336-349]
22.8 | EDKALPRPIRPHRN [O75163 272-285]
2630 | EDFVPFRPRRSPRM [Q14202 277-290]
55.6 | EDSIPKRPVSSIPL [Q8WTV4 223-236]
74.7 | EDAKLRRPMVIEII [Q9NZ29 33-46]
15.6 | EDEEPKRPLPRKQS [Q9BZ71 330-343]

Target: T1, amphyphisin SH3 (AMPH_HUMAN), P49418
Test: SPOT array

normalised SPOT signal, Boehringer light units (BLU); mean over the file's lines of this peptide | Binder
70.7 | AERPPSKPPPVELR [Q14203 913-927]
672 | EDALPTRPKKRARS [Q9UPW0 160-173]
39.7 | EEASFRRPHPDGDV [Q9UBD0 73-86]
18 | EEAALKRPEIISTV [Q9NU22 363-376]
9000 | EDRLPRRPARSGGP [Q9UGK6 43-56]
41.5 | EDVKPFKPPLSDAE [Q9UJV1 144-158]
59 | EASIFRRPYYVSHF [O15360 570-583]
218 | AETRPHRPPGARDS [Q9H021 747-761]
6800 | EDPPPTRPSRPWRD [Q9UIG4 62-75]
231 | EASSPARPSKHSVG [Q92932 121-134]
83.5 | EEAQIFRPLKFNTT [Q15029 572-585]
38.7 | EDVLLRRPKSTPDM [Q9NUD7 336-349]
483 | EDKALPRPIRPHRN [O75163 272-285]
20100 | EDFVPFRPRRSPRM [Q14202 277-290]
33.5 | EDSIPKRPVSSIPL [Q8WTV4 223-236]
34.7 | EDAKLRRPMVIEII [Q9NZ29 33-46]
35.6 | EDEEPKRPLPRKQS [Q9BZ71 330-343]
